B1: DR5 mAb 3×CD3 mAb 2 (bispecific antibody)
chain 1: SELTQDPAVSVALGQTVRITCSGDSLRSYYASWYQQKPGQAPVLVIYGANNRPSGIPDRFSGSSSGNTASLTITGAQAEDEADYYCNSADSSGNHVVFGGGTKLTVLGGGGSGGGGEVQLVESGGGLVQPGGSLRLSCAASGFTFSTYAMNWVRQAPGKGLEWVGRIRSKYNNYATYYADSVKGRFTISRDDSKNSLYLQMNSLKTEDTAVYYCVRHGNFGNSYVSWFAYWGQGTLVTVSSASTKGEVAACEKEVAALEKEVAALEKEVAALEK
chain 2: QAVVTQEPSLTVSPGGTVTLTCRSSTGAVTTSNYANWVQQKPGQAPRGLIGGTNKRAPWTPARFSGSLLGGKAALTITGAQAEDEADYYCALWYSNLWVFGGGTKLTVLGGGGSGGGGEVQLVQSGGGVERPGGSLRLSCAASGFTFDDYAMSWVRQAPGKGLEWVSGINWQGGSTGYADSVKGRVTISRDNAKNSLYLQMNSLRAEDTAVYYCAKILGAGRGWYFDYWGKGTTVTVSSASTKGKVAACKEKVAALKEKVAALKEKVAALKE
notes: also called diabody with the VL and VH Domains of drozitumab
B2: DR5 mAb 1 (antibody, V domains shown)
VH: EVKFLESGGGLVQPGGSLKLSCVASGFDFSRYWMSWVRQAPGKGLEWIGEINPDSNTINYTPSLKDKFIISRDNAKNTLYLQMTKVRSEDTALYYCTRRAYYGNPAWFAYWGQGTLVTVSS
VL: DIVLTQSPASLAVSLGQRATISCRASKSVSSSGYSYMHWYQQKPGQPPKVLIFLSSNLDSGVPARFSGSGSGTDFTLNIHPVEDGDAATYYCQHSRDLPPTFGGGTKLEIK
notes: also called anti-human DR5 monoclonal antibody DR5 mAb 1
B3: DR5 mAb 1×CD3 mAb 2 (bispecific antibody)
chain 1: DIVLTQSPASLAVSLGQRATISCRASKSVSSSGYSYMHWYQQKPGQPPKVLIFLSSNLDSGVPARFSGSGSGTDFTLNIHPVEDGDAATYYCQHSRDLPPTFGGGTKLEIKGGGSGGGGEVQLVESGGGLVQPGGSLRLSCAASGFTFSTYAMNWVRQAPGKGLEWVGRIRSKYNNYATYYADSVKGRFTISRDDSKNSLYLQMNSLKTEDTAVYYCVRHGNFGNSYVSWFAYWGQGTLVTVSSASTKGEVAACEKEVAALEKEVAALEKEVAALEK
chain 2: QAVVTQEPSLTVSPGGTVTLTCRSSTGAVTTSNYANWVQQKPGQAPRGLIGGTNKRAPWTPARFSGSLLGGKAALTITGAQAEDEADYYCALWYSNLWVFGGGTKLTVLGGGGSGGGGEVKFLESGGGLVQPGGSLKLSCVASGFDFSRYWMSWVRQAPGKGLEWIGEINPDSNTINYTPSLKDKFIISRDNAKNTLYLQMTKVRSEDTALYYCTRRAYYGNPAWFAYWGQGTLVTVSSASTKGKVAACKEKVAALKEKVAALKEKVAALKE
notes: also called bispecific DR5×CD3 diabody
B4: DR5 mAb 2 (antibody, V domains shown)
VH: KVQLQQSGAELVKPGASVKLSCKASGYTFTEYILHWVKQKSGQGLEWIGWFYPGNNNIKYNEKFKDKATLTADKSSSTVYMELSRLTSEDSAVYFCARHEQGPGYFDYWGQGTTLTVSS
VL: DIVMTQSHKFMSTSVGDRVSITCKASQDVNTAVAWYQQKPGQSPKLLIYWASTRHTGVPDRFTGSGSGTDYTLTIKSVQAEDLTLYYCQQHYITPWTFGGGTKLEIK
notes: It is a murine antibody; also called murine anti-human antibody DR5 mAb 2; DR mAb 2
B5: DR5 mAb 4×CD3 mAb 2 (bispecific antibody)
chain 1: EIVLTQSPGTLSLSPGERATLSCRASQGISRSYLAWYQQKPGQAPSLLIYGASSRATGIPDRFSGSGSGTDFTLTISRLEPEDFAVYYCQQFGSSPWTFGQGTKVEIKGGGSGGGGEVQLVESGGGLVQPGGSLRLSCAASGFTFSTYAMNWVRQAPGKGLEWVGRIRSKYNNYATYYADSVKGRFTISRDDSKNSLYLQMNSLKTEDTAVYYCVRHGNFGNSYVSWFAYWGQGTLVTVSSASTKGEVAACEKEVAALEKEVAALEKEVAALEK
chain 2: QAVVTQEPSLTVSPGGTVTLTCRSSTGAVTTSNYANWVQQKPGQAPRGLIGGTNKRAPWTPARFSGSLLGGKAALTITGAQAEDEADYYCALWYSNLWVFGGGTKLTVLGGGGSGGGGQVQLQESGPGLVKPSQTLSLTCTVSGGSISSGDYFWSWIRQLPGKGLEWIGHIHNSGTTYYNPSLKSRVTISVDTSKKQFSLRLSSVTAADTAVYYCARDRGGDYYYGMDVWGQGTTVTVSSASTKGKVAACKEKVAALKEKVAALKEKVAALKE
notes: also called diabody with the VL and VH Domains of conatumumab
B6: DR5 mAb 2×CD3 mAb 2 (bispecific antibody)
chain 1: DIVMTQSHKFMSTSVGDRVSITCKASQDVNTAVAWYQQKPGQSPKLLIYWASTRHTGVPDRFTGSGSGTDYTLTIKSVQAEDLTLYYCQQHYITPWTFGGGTKLEIKGGGSGGGGEVQLVESGGGLVQPGGSLRLSCAASGFTFSTYAMNWVRQAPGKGLEWVGRIRSKYNNYATYYADSVKGRFTISRDDSKNSLYLQMNSLKTEDTAVYYCVRHGNFGNSYVSWFAYWGQGTLVTVSSASTKGEVAACEKEVAALEKEVAALEKEVAALEK
chain 2: QAVVTQEPSLTVSPGGTVTLTCRSSTGAVTTSNYANWVQQKPGQAPRGLIGGTNKRAPWTPARFSGSLLGGKAALTITGAQAEDEADYYCALWYSNLWVFGGGTKLTVLGGGGSGGGGKVQLQQSGAELVKPGASVKLSCKASGYTFTEYILHWVKQKSGQGLEWIGWFYPGNNNIKYNEKFKDKATLTADKSSSTVYMELSRLTSEDSAVYFCARHEQGPGYFDYWGQGTTLTVSSASTKGKVAACKEKVAALKEKVAALKEKVAALKE
notes: also called DR5 mAb 2×CD3 mAb 2 diabody

Columns and labels:
[1] = biological target: T1, His-tagged cynomolgus monkey DR5 (cynomolgus monkey); test: Biacore (SPR); DR5×CD3 diabody with His-tagged cynomolgus monkey DR5
T1 construct: also called His-tagged DR5 (cynomolgus monkey)
Method: Bispecific DR5×CD3 diabodies were incubated with His-tagged DR5 and the kinetics of binding was determined via Biacore analysis.

histidine tagged TRAIL = biological target: T2, histidine tagged TRAIL (UniProt P50591 114-281, limits assumed); test: ELISA, biotinylated antibody on TRAIL-His coat
T2 construct: also called TRAIL-His; TRAIL ligand; not shown: histidine tag

human DR5 = biological target: T3, human DR5 (human, UniProt O14763 56-440); test: antibody titration read as MFI (log axis) against concentration in nM; the text does not describe the assay format or how DR5 was presented (Example 2)
T3 construct: also called Death Receptor 5; TRAIL-R2
T3 sequence (O14763 other isoform, or with tags, fused parts or gaps): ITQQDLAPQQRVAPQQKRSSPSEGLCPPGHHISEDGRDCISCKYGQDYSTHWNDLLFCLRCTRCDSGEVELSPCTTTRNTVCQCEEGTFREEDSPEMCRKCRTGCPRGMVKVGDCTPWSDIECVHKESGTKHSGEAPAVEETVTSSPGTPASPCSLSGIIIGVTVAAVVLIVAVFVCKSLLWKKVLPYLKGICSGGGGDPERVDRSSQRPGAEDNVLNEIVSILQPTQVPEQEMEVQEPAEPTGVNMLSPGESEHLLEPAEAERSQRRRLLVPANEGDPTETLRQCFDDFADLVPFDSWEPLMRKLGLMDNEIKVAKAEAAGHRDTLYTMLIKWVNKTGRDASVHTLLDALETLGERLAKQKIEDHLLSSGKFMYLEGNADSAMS

| Binder | Kd [1] [nM] | binding result (histidine tagged TRAIL) | EC50 (read off the curve) (human DR5) [nM] |
| --- | --- | --- | --- |
| B1 | 13.3 |  |  |
| B2 |  | no binding | ~1 |
| B3 | 32.5 |  |  |
| B4 |  | no binding |  |
| B5 | 16.4 |  |  |
| B6 | 0.42 |  |  |

Source: patent US20180016344A1 (MacroGenics, published 2018)
